The target of this test is Human recombinant ADAM17 (human) (UniProt P78536).

This passage reports Km of the ADAM17-catalysed cleavage of the fluorogenic substrate (Lineweaver–Burk plot), control without E144 and Km of the ADAM17-catalysed cleavage of the fluorogenic substrate (Lineweaver–Burk plot), in the presence of 5 μM E144 results from PMC7037359.

Sequence of UniProt P78536 (P78536 18-824): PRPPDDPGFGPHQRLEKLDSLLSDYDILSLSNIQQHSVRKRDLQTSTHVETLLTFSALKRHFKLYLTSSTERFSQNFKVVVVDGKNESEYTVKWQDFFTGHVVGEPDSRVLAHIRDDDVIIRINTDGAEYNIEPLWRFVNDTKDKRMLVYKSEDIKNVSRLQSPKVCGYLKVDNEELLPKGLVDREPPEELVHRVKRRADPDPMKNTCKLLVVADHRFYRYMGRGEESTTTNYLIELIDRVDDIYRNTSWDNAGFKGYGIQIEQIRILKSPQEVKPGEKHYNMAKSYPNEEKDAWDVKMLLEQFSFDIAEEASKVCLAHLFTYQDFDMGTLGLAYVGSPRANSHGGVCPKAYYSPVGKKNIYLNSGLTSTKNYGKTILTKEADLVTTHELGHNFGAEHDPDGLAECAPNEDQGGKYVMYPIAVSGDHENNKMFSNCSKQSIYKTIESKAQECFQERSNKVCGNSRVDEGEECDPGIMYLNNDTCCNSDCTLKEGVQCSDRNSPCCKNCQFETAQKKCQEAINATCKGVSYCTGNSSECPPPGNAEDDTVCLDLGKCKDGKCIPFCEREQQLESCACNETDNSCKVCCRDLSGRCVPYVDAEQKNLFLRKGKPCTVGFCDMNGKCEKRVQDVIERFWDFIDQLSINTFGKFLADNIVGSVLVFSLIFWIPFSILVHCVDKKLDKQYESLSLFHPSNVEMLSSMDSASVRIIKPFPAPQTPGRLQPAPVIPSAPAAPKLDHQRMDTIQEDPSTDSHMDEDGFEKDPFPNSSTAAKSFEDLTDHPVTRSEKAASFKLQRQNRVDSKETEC

Regarding “Mca-KPLGL-Dpa-AR-NH2, fluorogenic ADAM17 substrate (peptide)”, the Km of the ADAM17-catalysed cleavage of the fluorogenic substrate (Lineweaver–Burk plot), control without E144 was determined as 580 µM and the Km of the ADAM17-catalysed cleavage of the fluorogenic substrate (Lineweaver–Burk plot), in the presence of 5 μM E144 amounted to 20 µM.
